# Measurements as given in patent publication US20160046707A1 (EISAI R AND D MANAGEMENT, published 2016).
# T1: recombinant human CXCL4 (human, UniProt P02776 32-101)
# T1 construct: also called PF4
# T1 sequence (looked up): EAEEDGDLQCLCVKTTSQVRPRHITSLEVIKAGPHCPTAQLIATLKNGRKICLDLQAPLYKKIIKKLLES
# T2: mouse CCL20-secreted alkaline phosphatase (SEAP) fusion (mouse, UniProt O89093 28-97)
# T2 construct: Expressed in HEK293E, used as culture supernatant; also called SEAP-tagged mouse CCL20; mCCL20; not shown: secreted alkaline phosphatase (SEAP), cDNA from pSEAP-Enhancer vector (Clontech)
# T2 sequence: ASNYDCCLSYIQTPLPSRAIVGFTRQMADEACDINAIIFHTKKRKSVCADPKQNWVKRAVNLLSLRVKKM
# T3: cynomolgus CCL20-secreted alkaline phosphatase (SEAP) fusion (cynomolgus monkey)
# T3 construct: also called cCCL20; cynomolgus CCL20-SEAP; not shown: the SEAP reporter (cDNA from Clontech pSEAP-Enhancer) and its junction to CCL20
# T3 chain: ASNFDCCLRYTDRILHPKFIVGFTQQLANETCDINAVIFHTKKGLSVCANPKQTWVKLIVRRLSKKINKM
# T4: rhesus CCL20-secreted alkaline phosphatase (SEAP) fusion (rhesus monkey)
# T4 construct: also called rCCL20; rhesus CCL20-SEAP; not shown: the SEAP reporter (cDNA from Clontech pSEAP-Enhancer) and its junction to CCL20
# T4 chain: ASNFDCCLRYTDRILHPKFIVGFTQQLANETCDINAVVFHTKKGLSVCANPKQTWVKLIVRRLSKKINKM
# Key:
# recombinant human CXCL4 = target: T1, recombinant human CXCL4; test: ELISA, plate-bound chemokine (1 ug/ml), antibody 10 ug/ml, OD450
# Summary of the method: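 Wells coated overnight at 4 °C with 1 μg/ml recombinant human chemokine in PBS, blocked 1 h, then incubated 1 h at room temperature with antibodies at 10 μg/ml in 0.02% Tween 20/PBS. TMB development 15–30 min, stopped with 2 M H2SO4, OD read at 450 nm.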
# [1] = target: T2, mouse CCL20-secreted alkaline …; test: ELISA on CCL20-SEAP, Abs 450; x axis 'ug/ml' in 4-fold steps down from 10, taken as the antibody concentration as in FIG. 11C
# [2] = target: T3, cynomolgus CCL20-secreted alkaline …; test: ELISA, serially diluted CCL20-SEAP captured by anti-alkaline phosphatase antibody, antibody at 1 µg/ml
# Protocol: (§1) To test whether the chimeric and humanized antibodies can bind to mouse, cynomolgus, or rhesus macaque CCL20 orthologs, we used ELISA assays as illustrated in FIG. 15. Recombinant secreted alkaline phosphatase (SEAP)-chemokine fusion proteins were engineered as described in Example 2, expressed and purified for all of the CCL20 orthologs tested. Nunc MaxiSorb flat-bottom black plates were coated with 1 μg/ml mouse anti-placental alkaline phosphatase antibody (Pierce, cat# MA1-19354) in 50 mM sodium bicarbonate, pH 9.4, overnight at 4° C. Plates were then blocked using 1× phosphate buffered saline with Tween-20 (PBST) with 5% bovine serum albumin (BSA) for 2 hours at room temperature. 20 nM SEAP-CCL20 fusion proteins were serially diluted 5-fold in Opti-MEM medium (Invitrogen). Chimeric and humanized (HC2/LC3 and HC2/LK3) antibodies were diluted to 1 μg/ml in 1×PBST with 5% BSA, added to the plates, and incubated for 1 hr at room temperature. The plates were then washed with 1×PBST with 5% BSA three times. […] QuantaBlu fluorescent HRP substrate (Pierce cat#15169) was added for detection of bound antibody by measuring fluorescence in a Molecular Devices M5 (Excitation 325 nm/Emission 420 nm) plate reader. […]
# [3] = target: T5, human CCL20-secreted alkaline phosphatase (SEAP) fusion (human, UniProt P78556 27-96); test: ELISA, serially diluted CCL20-SEAP captured by anti-alkaline phosphatase antibody, antibody at 1 µg/ml; human CCL20-SEAP
# T5 construct: also called hCCL20; human CCL20-SEAP; not shown: secreted alkaline phosphatase (SEAP), cDNA from pSEAP-Enhancer vector (Clontech)
# Protocol: as §1
# [4] = target: T4, rhesus CCL20-secreted alkaline …; test: ELISA, serially diluted CCL20-SEAP captured by anti-alkaline phosphatase antibody, antibody at 1 µg/ml; rhesus CCL20-SEAP
# Protocol: as §1
# [5] = target: T3, cynomolgus CCL20-secreted alkaline …; test: ELISA, serially diluted CCL20-SEAP captured by anti-alkaline phosphatase antibody, antibody at 1 µg/ml; cynomolgus CCL20-SEAP
# Protocol: To test whether the chimeric and humanized antibodies can bind to mouse, cynomolgus, or rhesus macaque CCL20 orthologs, we used ELISA assays as illustrated in FIG. 15. Recombinant secreted alkaline phosphatase (SEAP)-chemokine fusion proteins were engineered as described in Example 2, expressed and purified for all of the CCL20 orthologs tested. Nunc MaxiSorb flat-bottom black plates were coated with 1 μg/ml mouse anti-placental alkaline phosphatase antibody (Pierce, cat# MA1-19354) in 50 mM sodium bicarbonate, pH 9.4, overnight at 4° C. Plates were then blocked using 1× phosphate buffered saline with Tween-20 (PBST) with 5% bovine serum albumin (BSA) for 2 hours at room temperature. 20 nM SEAP-CCL20 fusion proteins were serially diluted 5-fold in Opti-MEM medium (Invitrogen). Chimeric and humanized (HC2/LC3 and HC2/LK3) antibodies were diluted to 1 μg/ml in 1×PBST with 5% BSA, added to the plates, and incubated for 1 hr at room temperature. The plates were then washed with 1×PBST with 5% BSA three times. […] QuantaBlu fluorescent HRP substrate (Pierce cat#15169) was added for detection of bound antibody by measuring fluorescence in a Molecular Devices M5 (Excitation 325 nm/Emission 420 nm) plate reader.
# T5 sequence (P78556 27-96): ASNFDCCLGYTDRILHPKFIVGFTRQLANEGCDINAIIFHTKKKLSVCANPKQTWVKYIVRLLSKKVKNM
Binder,binding result (recombinant human CXCL4),binding result [1],fold difference of EC50 versus human CCL20 [2] [fold],EC50 [3] [pM],EC50 [4] [pM],EC50 [5] [pM]
"mouse anti-human CCL20 monoclonal antibody 36F7C10 (antibody, V domains shown, Mouse hybridoma antibody; also called MouseMAb; parental mouse clone 36F7C10) VH: QVQLQQPGAELVKPGASVKMSCKASGYTFTNYWMHWVKQRPGQGLEWIGVIDPSDSYTTYNQKFKGKATLTVDTSSSTAYMQLSSLTSEDSAVYYCTRGNYGVDYAMDYWGQGTSVTVSS VL: DIQMTQSPASLSASVGETVTITCGASENIYGALNWYQRKQGKSPQLLIYGATNLADGMSSRFSGSGSGRQYSLKISSLHPDDVATYYCQNVLITPYTFGGGTKLEIK",no binding (tested: 10 ug/ml),no binding (tested: 10 ug/ml),,,,
"humanized anti-human CCL20 antibody 36LC3/36HC2 (antibody, human IgG1, kappa, V domains shown, expressed in HEK293 cells; also called HC2/LC3; HC2LC3) VH: QVQLVQSGAEVKKPGASVKVSCKASGYTFTNYWMHWVRQAPGQGLEWMGVIDPSDSYTTYAQKFQGRVTMTVDTSTSTVYMELSSLRSEDTAVYYCARGNYGVDYAMDYWGQGTLVTVSS VL: DIQMTQSPSSLSASVGDRVTITCRASENIYGALNWYQQKPGKAPKLLIYGATNLADGVPSRFSGSGSGRQYSLTISSLQPEDFATYYCQNVLITPYTFGGGTKLEIKR",,,5.4,62,101,340
